Experimental data from the supplement of paper PMC10567573.

B1: SLC2A12 (parent)
chain: TRIMIGLTLVFFVQITGQPNILFY
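Also: lentivirally expressed fusions sorted by FACS into six bins by GFP to DsRed ratio, PSI derived from sequencing read proportions per bin multiplied by bin number.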

Variants of: B1
Assay: protein stability index of a GFP-peptide fusion (GPS, HEK-293T) (PSI 1-6); higher = more stable
Details: c terminus: a fixed tail appended
With TRINIGLTLVFFVQITGQPNILFY [M4N] the protein stability index was 3.52.
Variant TRISIGLTLVFFVQITGQPNILFY [M4S] has a protein stability index of 3.75.
With TRIAIGLTLVFFVQITGQPNILFY [M4A] the protein stability index was 3.65.
TRIPIGLTLVFFVQITGQPNILFY [M4P] gave a protein stability index of 2.72.
TRIGIGLTLVFFVQITGQPNILFY [M4G] gave a protein stability index of 2.99.
With TRIMIMLTLVFFVQITGQPNILFY [G6M] the protein stability index was 2.46.
With TRIMICLTLVFFVQITGQPNILFY [G6C] the protein stability index was 2.87.
In the case of TRIMIWLTLVFFVQITGQPNILFY [G6W], the protein stability index is reported as 1.9.
With TRIMIKLTLVFFVQITGQPNILFY [G6K] the protein stability index was 2.19.
For TRIMIYLTLVFFVQITGQPNILFY [G6Y], the protein stability index was 2.48.
Work on TRIMILLTLVFFVQITGQPNILFY [G6L] yielded a protein stability index of 2.22.
For TRIMIRLTLVFFVQITGQPNILFY [G6R], the protein stability index was 2.75.
In the case of TRIMIALTLVFFVQITGQPNILFY [G6A], the protein stability index is reported as 1.78.
Variant TRIMIQLTLVFFVQITGQPNILFY [G6Q] has a protein stability index of 2.82.
For TRIMIGLTLMFFVQITGQPNILFY [V10M], the protein stability index was 3.53.
Variant TRIMIGLTLWFFVQITGQPNILFY [V10W] has a protein stability index of 2.58.
For TRIMIGLTLAFFVQITGQPNILFY [V10A], the protein stability index was 3.99.
Work on TRIMIGYTLVFFVQITGQPNILFY [L7Y] yielded a protein stability index of 4.24.
With TRIMIGQTLVFFVQITGQPNILFY [L7Q] the protein stability index was 1.72.
TRIMIGVTLVFFVQITGQPNILFY [L7V] gave a protein stability index of 2.5.
With TRIMIGLTLVFFVQITGQLNILFY [P19L] the protein stability index was 3.42.
With TRIMIGLTLVFFVQITGQYNILFY [P19Y] the protein stability index was 2.23.
Work on TRIMIGLTLVFFVQITGQHNILFY [P19H] yielded a protein stability index of 3.72.
For TRIMYGLTLVFFVQITGQPNILFY [I5Y], the protein stability index was 2.65.
TRIMDGLTLVFFVQITGQPNILFY [I5D] showed a protein stability index of 3.91.
TRIMMGLTLVFFVQITGQPNILFY [I5M] gave a protein stability index of 1.77.
Work on TRIMVGLTLVFFVQITGQPNILFY [I5V] yielded a protein stability index of 2.69.
Work on TRIMIGLTLVFFVQQTGQPNILFY [I15Q] yielded a protein stability index of 3.39.
Work on TRIMIGLTLVFFVQSTGQPNILFY [I15S] yielded a protein stability index of 2.98.
With TRIMIGLTLVFFVQGTGQPNILFY [I15G] the protein stability index was 1.73.
Work on TIIMIGLTLVFFVQITGQPNILFY [R2I] yielded a protein stability index of 2.93.
TDIMIGLTLVFFVQITGQPNILFY [R2D] gave a protein stability index of 3.39.
For TAIMIGLTLVFFVQITGQPNILFY [R2A], the protein stability index was 3.31.
With TYIMIGLTLVFFVQITGQPNILFY [R2Y] the protein stability index was 2.27.
In the case of TNIMIGLTLVFFVQITGQPNILFY [R2N], the protein stability index is reported as 3.48.
TTIMIGLTLVFFVQITGQPNILFY [R2T] gave a protein stability index of 2.27.
Work on TRIMIGLTLVKFVQITGQPNILFY [F11K] yielded a protein stability index of 2.68.
In the case of TRIMIGLTLVRFVQITGQPNILFY [F11R], the protein stability index is reported as 2.16.
In the case of TRIMIGLTLVQFVQITGQPNILFY [F11Q], the protein stability index is reported as 3.49.
With TRIMIGLTLVSFVQITGQPNILFY [F11S] the protein stability index was 3.83.
TRIMIGLTLVTFVQITGQPNILFY [F11T] gave a protein stability index of 3.22.
TRIMIGLTLVPFVQITGQPNILFY [F11P] gave a protein stability index of 2.09.
Variant TRIMIGLTLVFDVQITGQPNILFY [F12D] has a protein stability index of 2.7.
TRIMIGLTLVFHVQITGQPNILFY [F12H] showed a protein stability index of 3.17.
Variant TRIMIGLTLVFLVQITGQPNILFY [F12L] has a protein stability index of 3.53.
With TRIMIGLTLVFQVQITGQPNILFY [F12Q] the protein stability index was 3.16.
TRNMIGLTLVFFVQITGQPNILFY [I3N] gave a protein stability index of 2.12.
Variant TRHMIGLTLVFFVQITGQPNILFY [I3H] has a protein stability index of 2.87.
With TRCMIGLTLVFFVQITGQPNILFY [I3C] the protein stability index was 2.21.
Variant TRYMIGLTLVFFVQITGQPNILFY [I3Y] has a protein stability index of 3.58.
In the case of TRIMIGLTLVFFVYITGQPNILFY [Q14Y], the protein stability index is reported as 3.3.
For TRIMIGLTLVFFVWITGQPNILFY [Q14W], the protein stability index was 4.35.
In the case of TRIMIGLTLVFFVVITGQPNILFY [Q14V], the protein stability index is reported as 3.44.
With TRIMIGLTLVFFVEITGQPNILFY [Q14E] the protein stability index was 2.11.
TRIMIGLTLVFFVRITGQPNILFY [Q14R] gave a protein stability index of 2.38.
With TRIMIGLTLVFFVHITGQPNILFY [Q14H] the protein stability index was 2.02.
In the case of TRIMIGLTLVFFVNITGQPNILFY [Q14N], the protein stability index is reported as 3.37.
In the case of TRIMIGLTLVFFVKITGQPNILFY [Q14K], the protein stability index is reported as 3.25.
In the case of TRIMIGLTLVFFVAITGQPNILFY [Q14A], the protein stability index is reported as 3.31.
With TRIMIGLTLVFFVSITGQPNILFY [Q14S] the protein stability index was 3.29.
With TRIMIGLTLVFFVFITGQPNILFY [Q14F] the protein stability index was 2.86.
For TRIMIGLTLVFFKQITGQPNILFY [V13K], the protein stability index was 2.19.
TRIMIGLTLVFFAQITGQPNILFY [V13A] showed a protein stability index of 3.24.
For TRIMIGLTLVFFIQITGQPNILFY [V13I], the protein stability index was 3.48.
With TRIMIGLTLVFFEQITGQPNILFY [V13E] the protein stability index was 2.15.
Variant TRIMIGLTLVFFGQITGQPNILFY [V13G] has a protein stability index of 3.16.
Variant TRIMIGLTLVFFHQITGQPNILFY [V13H] has a protein stability index of 3.1.
For TRIMIGLTLVFFDQITGQPNILFY [V13D], the protein stability index was 2.46.
TRIMIGLTAVFFVQITGQPNILFY [L9A] gave a protein stability index of 3.04.
TRIMIGLTMVFFVQITGQPNILFY [L9M] gave a protein stability index of 2.58.
For TRIMIGLTQVFFVQITGQPNILFY [L9Q], the protein stability index was 1.7.
In the case of TRIMIGLTIVFFVQITGQPNILFY [L9I], the protein stability index is reported as 3.09.
Work on TRIMIGLTLVFFVQITGQPNELFY [I21E] yielded a protein stability index of 3.88.
Work on TRIMIGLTLVFFVQITGQPNDLFY [I21D] yielded a protein stability index of 3.69.
TRIMIGLTLVFFVQITGQPNWLFY [I21W] gave a protein stability index of 3.64.
TRIMIGLTLVFFVQITGQPNALFY [I21A] showed a protein stability index of 2.81.
With TRIMIGLTLVFFVQITGQPNQLFY [I21Q] the protein stability index was 2.1.
TRIMIGLTLVFFVQITGQPNRLFY [I21R] gave a protein stability index of 2.73.
TRIMIGLTLVFFVQITGQPNPLFY [I21P] showed a protein stability index of 3.17.
TRIMIGLTLVFFVQITGQPNIHFY [L22H] gave a protein stability index of 2.65.
TRIMIGLTLVFFVQITGQPNIMFY [L22M] gave a protein stability index of 2.97.
TRIMIGLTLVFFVQITGQPNIQFY [L22Q] gave a protein stability index of 1.83.
With TRIMIGLTLVFFVQITGQPNIEFY [L22E] the protein stability index was 3.11.
With TRIMIGLTLVFFVQITGQPNISFY [L22S] the protein stability index was 3.01.
For TRIMIGLTLVFFVQITGQPNICFY [L22C], the protein stability index was 3.96.
Work on TRIMIGLTLVFFVQILGQPNILFY [T16L] yielded a protein stability index of 1.04.
Work on TRIMIGLTLVFFVQIIGQPNILFY [T16I] yielded a protein stability index of 4.14.
For TRIMIGLTLVFFVQIPGQPNILFY [T16P], the protein stability index was 3.4.
In the case of TRIMIGLTLVFFVQIAGQPNILFY [T16A], the protein stability index is reported as 2.63.
With TRIMIGLTLVFFVQIHGQPNILFY [T16H] the protein stability index was 3.42.
In the case of TRIMIGLTLVFFVQITGQPNILFW [Y24W], the protein stability index is reported as 2.69.
Variant TRIMIGLTLVFFVQITGQPNILFN [Y24N] has a protein stability index of 2.88.
Variant TRIMIGLTLVFFVQITGQPNILFA [Y24A] has a protein stability index of 3.48.
In the case of MRIMIGLTLVFFVQITGQPNILFY [T1M], the protein stability index is reported as 1.44.
